Sequences and labels used below:
B1: AZIN with a C-terminal Clover (GFP) tag (natural protein)
chain: MKGFIDDANYSVGLLDEGTNLGNVIDNYVYEHTLTGKNAFFVGDLGKIVKKHSQWQNVVAQIKPFYTVKCNSAPAVLEILAALGTGFACSSKNEMALVQELGVPPENIIYISPCKQVSQIKYAAKVGVNILTCDNEIELKKIARNHPNAKVLLHIATEDNIGGEEGNMKFGTTLKNCRHLLECAKELDVQIIGVKFHVSSACKESQVYVHALSDARCVFDMAGEIGFTMNMLDIGGGFTGTEFQLEEVNHVISPLLDIYFPEGSGVKIISEPGSYYVSSAFTLAVNIIAKKVVENDKFPSGVEKTGSDEPAFMYYMNDGVYGSFASKLSEDLNTIPEVHKKYKEDEPLFTSSLWGPSCDELDQIVESCLLPELNVGDWLIFDNMGADSFHEPSAFNDFQRPAIYYMMSFSDWYEMQDAGITSDSMMKNFFFVPSCIQLSQEDSFSAEA
B2: Clover-AZIN (antizyme inhibitor with an N-terminal Clover tag) (natural protein)
chain: B1 chain
B3: antizyme-mRuby2 (antizyme with a C-terminal mRuby2 tag) (natural protein)
chain: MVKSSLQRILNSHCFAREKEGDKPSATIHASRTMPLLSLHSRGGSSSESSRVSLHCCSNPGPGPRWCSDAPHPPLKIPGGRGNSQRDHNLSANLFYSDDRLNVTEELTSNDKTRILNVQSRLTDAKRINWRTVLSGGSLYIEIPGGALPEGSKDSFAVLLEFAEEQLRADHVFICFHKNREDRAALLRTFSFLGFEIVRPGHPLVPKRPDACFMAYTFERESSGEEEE

Common to all, as to test: FRET
The target in test [1] is B3.
The target of test [2] is antizyme with an N-terminal mRuby2 tag (human, UniProt P54368 1-228).
antizyme with an N-terminal mRuby2 tag, sequence (P54368 whole entry): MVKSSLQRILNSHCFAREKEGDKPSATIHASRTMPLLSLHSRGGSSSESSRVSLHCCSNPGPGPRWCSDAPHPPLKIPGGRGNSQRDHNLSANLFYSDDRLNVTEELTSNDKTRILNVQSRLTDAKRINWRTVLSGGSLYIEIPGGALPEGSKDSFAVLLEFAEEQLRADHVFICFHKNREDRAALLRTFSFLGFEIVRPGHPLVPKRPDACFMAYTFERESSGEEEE
For the next test, the target named is Clover-AZIN A325N (human, UniProt O14977 1-448, A325N).

With B1, the Kd in test [1] was determined as 29 nM; in test [2] it was 89 nM.

In test [2], B2 gave a Kd of 80 nM.

In turn, B3 yielded a Kd with Clover-AZIN A325N of 35.6 nM.

Broadly, the Kd is the free concentration of one partner at which half of the binding sites on the other are occupied at equilibrium, for simple one-to-one binding.

Values taken from paper PMC6420652 (2019).
